We go through 1 substance from doi:10.1101/2025.10.21.683802.

Usually stoichiometry N stands for the number of molecules, sites or subunits per partner or assembly.

Assay [1] deals with β2-adrenergic receptor, construct PN1 (monomeric) (UniProt P07550). Kind of assay: BLI; FLAG-tagged β2AR held through biotinylated anti-FLAG M1 Fab on SA tips with 10 μM Iso; Gs 30 nM to 10 μM with 10 μM GDP and 0.1% BSA; NH buffer, 0.01% LMNG, 0.001% CHS; 30°C; KD from equilibrium responses.
Assay [2] shares this target. Kind of assay: BLI; as a14, with AP at 10 μM.
Assay [3] deals with β2-adrenergic receptor, construct PN1 (monomeric β2AR) (human) (UniProt P07550). Kind of assay: BLI; as a1, monomeric β2AR with 10 µM AP; 10 µM Iso; apparent kon and koff; KD from equilibrium responses.
In assay [4] the target is AP-bound β2AR dimer (construct PN1 with AP-7-168) (UniProt P07550). As to the kind of experiment: SEC; AP-bound dimer with nucleotide-free Gs; peak fractions on SDS-PAGE, ratio of β2AR to Gα bands estimated on gels.

As to “heterotrimeric Gs (Gαsβ1γ2) (from UniProt P63092 1-394; P62873 1-340; P59768 1-71) (complex)”, the results for the Kd in assay [1], in assay [2] and in assay [3] were 960 nM, 1700 nM and 1710 nM, respectively. The stoichiometry N in assay [4] was 2 β2AR per Gα.
